Measurements as given in publication PMC8748612, “Maximizing response to intratumoral immunotherapy in mice by tuning local retention” (Nature Communications, 2022).
Values belong to the molecule of their own block, whether it stands above or below them.

Key:
[1] = biological target: Collagen I (Gibco), coated on 96-well plates (UniProt P02454); assay: ELISA; Collagen I (Gibco) coated 96-well plates; LAIR-fusion proteins in PBSTA (PBS, 0.1% BSA, 0.05% Tween-20) for 4 h at room temperature; detected with HRP-conjugated polyclonal anti-6xHis
Collagen I (Gibco), coated on 96-well plates (UniProt P02454), sequence (P02454 152-1207, chain 1 of 2): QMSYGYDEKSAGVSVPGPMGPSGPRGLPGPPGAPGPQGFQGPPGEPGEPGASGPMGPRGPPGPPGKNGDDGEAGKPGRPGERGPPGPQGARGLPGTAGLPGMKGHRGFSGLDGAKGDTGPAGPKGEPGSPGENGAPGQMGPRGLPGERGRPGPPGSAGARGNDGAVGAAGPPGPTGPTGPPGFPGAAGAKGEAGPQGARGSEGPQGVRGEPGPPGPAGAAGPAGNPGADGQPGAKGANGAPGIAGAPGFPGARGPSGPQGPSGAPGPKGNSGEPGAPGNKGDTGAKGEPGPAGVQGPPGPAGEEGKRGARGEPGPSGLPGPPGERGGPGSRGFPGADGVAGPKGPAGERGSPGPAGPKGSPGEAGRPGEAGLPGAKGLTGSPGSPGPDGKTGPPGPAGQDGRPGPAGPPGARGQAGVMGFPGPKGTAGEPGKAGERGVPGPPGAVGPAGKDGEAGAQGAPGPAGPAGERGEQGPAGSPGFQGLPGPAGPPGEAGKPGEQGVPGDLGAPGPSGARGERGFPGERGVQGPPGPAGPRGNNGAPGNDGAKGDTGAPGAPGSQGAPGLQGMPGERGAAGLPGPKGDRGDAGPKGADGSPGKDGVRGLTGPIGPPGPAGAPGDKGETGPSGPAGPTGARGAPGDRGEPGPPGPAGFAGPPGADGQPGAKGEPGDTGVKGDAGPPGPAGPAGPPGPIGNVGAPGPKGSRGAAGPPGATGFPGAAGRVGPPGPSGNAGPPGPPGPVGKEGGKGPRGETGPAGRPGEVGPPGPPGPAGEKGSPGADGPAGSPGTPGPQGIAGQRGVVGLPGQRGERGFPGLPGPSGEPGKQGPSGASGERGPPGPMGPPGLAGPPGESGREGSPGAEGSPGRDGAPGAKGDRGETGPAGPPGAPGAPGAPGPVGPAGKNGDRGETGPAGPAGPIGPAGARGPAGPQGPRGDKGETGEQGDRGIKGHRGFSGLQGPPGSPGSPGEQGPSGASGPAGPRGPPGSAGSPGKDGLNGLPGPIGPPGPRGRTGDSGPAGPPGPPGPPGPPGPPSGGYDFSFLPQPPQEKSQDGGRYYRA
Collagen I (Gibco), coated on 96-well plates (UniProt P02454), sequence (P02466 86-1125, chain 2 of 2, further chain): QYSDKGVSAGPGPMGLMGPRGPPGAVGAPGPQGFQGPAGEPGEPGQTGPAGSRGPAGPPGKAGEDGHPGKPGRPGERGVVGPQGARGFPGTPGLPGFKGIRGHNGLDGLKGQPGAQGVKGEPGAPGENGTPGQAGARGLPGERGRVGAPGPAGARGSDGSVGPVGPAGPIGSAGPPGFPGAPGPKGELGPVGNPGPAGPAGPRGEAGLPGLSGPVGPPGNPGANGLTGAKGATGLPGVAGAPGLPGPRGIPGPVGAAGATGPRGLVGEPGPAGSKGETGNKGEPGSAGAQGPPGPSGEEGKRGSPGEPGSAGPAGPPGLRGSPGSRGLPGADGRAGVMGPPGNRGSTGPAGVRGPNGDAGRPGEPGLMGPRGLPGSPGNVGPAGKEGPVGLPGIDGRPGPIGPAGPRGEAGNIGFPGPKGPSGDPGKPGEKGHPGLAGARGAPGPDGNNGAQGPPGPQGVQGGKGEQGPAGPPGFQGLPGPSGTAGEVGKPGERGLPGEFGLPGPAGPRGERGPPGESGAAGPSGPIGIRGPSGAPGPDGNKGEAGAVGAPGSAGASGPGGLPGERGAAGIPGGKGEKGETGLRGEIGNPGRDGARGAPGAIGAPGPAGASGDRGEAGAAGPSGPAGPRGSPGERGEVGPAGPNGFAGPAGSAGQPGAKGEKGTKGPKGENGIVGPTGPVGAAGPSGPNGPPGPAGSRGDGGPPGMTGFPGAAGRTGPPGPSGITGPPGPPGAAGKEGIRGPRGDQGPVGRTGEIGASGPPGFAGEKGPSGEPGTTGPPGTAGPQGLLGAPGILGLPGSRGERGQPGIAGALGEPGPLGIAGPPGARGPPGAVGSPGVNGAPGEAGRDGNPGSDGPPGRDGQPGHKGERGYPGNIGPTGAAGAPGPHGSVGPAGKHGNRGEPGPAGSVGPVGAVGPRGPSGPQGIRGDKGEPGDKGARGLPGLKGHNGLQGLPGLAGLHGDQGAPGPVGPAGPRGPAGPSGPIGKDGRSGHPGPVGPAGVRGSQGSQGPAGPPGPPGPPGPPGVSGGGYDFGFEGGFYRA

[2] = biological target: T1, alternatively spliced extra-domain B (EIIIB) domain of fibronectin (Mus musculus (assumed; murine B16F10 …, UniProt P11276); assay: not stated; Kd for EIIIB printed in the discussion; Supplementary Fig. 18b is pointed to
T1 construct: fibronectin, alternatively spliced EIIIB (extra-domain B) domain; also called FN-EIIIB

[3] = biological target: T2, Collagen I (Gibco), coated on 96-well plates (UniProt P02454 152-1207; P02466 86-1125); assay: ELISA; Collagen I (Gibco) coated 96-well plates; LAIR-fusion proteins in PBSTA (PBS, 0.1% BSA, 0.05% Tween-20) for 4 h at room temperature; detected with HRP-conjugated polyclonal anti-6xHis; settings: both partners purified
T2 construct: collagen type I, alpha-1(I) chain; collagen type I, alpha-2(I) chain; the two chains and rat as species are surmised; also called native collagen; collagen type I; source: bought: Gibco (collagen I coated 96-well plates)
T2 sequence (P02454 152-1207, chain 1 of 2): as the sequence (P02454 152-1207, chain 1 of 2) above
T2 sequence (P02466 86-1125, chain 2 of 2): as the sequence (P02466 86-1125, chain 2 of 2, further chain) above

[4] = biological target: Collagen I (Gibco), coated on 96-well plates (UniProt P02454 152-1207; P02466 86-1125); assay: ELISA
Target sequence in this assay (P02454 152-1207, chain 1 of 2): as the sequence (P02454 152-1207, chain 1 of 2) above
Target sequence in this assay (P02466 86-1125, chain 2 of 2): as the sequence (P02466 86-1125, chain 2 of 2, further chain) above

Kd [1]: 220 nM
Molecule: LAIR-IL2-his (from UniProt Q8BG84 22-144)

Kd [1]: 13 nM
Molecule: LAIR-LAIR-MSA^H464Q-IL2-his (from UniProt Q8BG84 22-144; Q8BG84 22-144)

Kd [2]: 1 nM
B1: NJB2-MSA^H464Q-IL2 (VHH)
VHH: QVQLVETGGGLVQAGGSLRLSCAASGSTFSHNAGGWYRQAPEKQRELVAGISSDGNINYADSVKDRFTISRDNASNTMYLQMNNLKPEDTAVYVCNIRGSYGNTYYSRWGQGTQVTVSS
notes: nanobody NJB2 (15 kD); mouse serum albumin (MSA) with H464Q; interleukin-2 (IL-2); 98 kD; MSA^H464Q incorporated between the nanobody and IL-2; source: suspension HEK293, transfected, purified

Kd [3]: > 1000 nM
B2: LAIRx-LAIRx-MSA^H464Q-IL2-his (other)
chain: QEGSLPDITIFPNSSLMISQGTFVTVVCSYSDKHDLYNMVALAKDGSTFMEKSTEPYKTEDEFEIGPVNETITGHYSCIYSKGITWSERSKTLELKVIKENVIQTPAPGPTSDTSWLKTYSIYQEGSLPDITIFPNSSLMISQGTFVTVVCSYSDKHDLYNMVALAKDGSTFMEKSTEPYKTEDEFEIGPVNETITGHYSCIYSKGITWSERSKTLELKVIKENVIQTPAPGPTSDTSWLKTYSIYEAHKSEIAHRYNDLGEQHFKGLVLIAFSQYLQKCSYDEHAKLVQEVTDFAKTCVADESAANCDKSLHTLFGDKLCAIPNLRENYGELADCCTKQEPERNECFLQHKDDNPSLPPFERPEAEAMCTSFKENPTTFMGHYLHEVARRHPYFYAPELLYYAEQYNEILTQCCAEADKESCLTPKLDGVKEKALVSSVRQRMKCSSMQKFGERAFKAWAVARLSQTFPNADFAEITKLATDLTKVNKECCHGDLLECADDRAELAKYMCENQATISSKLQTCCDKPLLKKAHCLSEVEHDTMPADLPAIAADFVEDQEVCKNYAEAKDVFLGTFLYEYSRRHPDYSVSLLLRLAKKYEATLEKCCAEANPPACYGTVLAEFQPLVEEPKNLVKTNCDLYEKLGEYGFQNAILVRYTQKAPQVSTPTLVEAARNLGRVGTKCCTLPEDQRLPCVEDYLSAILNRVCLLQEKTPVSEHVTKCCSGSLVERRPCFSALTVDETYVPKEFKAETFTFHSDICTLPEKEKQIKKQTALAELVKHKPKATAEQLKTVMDDFAQFLDTCCKAADKDTCFSTEGPNLVTRCKDALAAPTSSSTSSSTAEAQQQQQQQQQQQQHLEQLLMDLQELLSRMENYRNLKLPRMLTFKFYLPKQATELKDLQCLEDELGPLRHVLDLTQSKSFQLEDAENFISNIRVTVVKLKGSDNTFECQFDDESATVVDFLRRWIAFCQSIISTSPQ

Kd [4]: 158 nM
B3: LAIR-LAIRx-MSA^H464Q-his (other)
chain: QEGSLPDITIFPNSSLMISQGTFVTVVCSYSDKHDLYNMVRLEKDGSTFMEKSTEPYKTEDEFEIGPVNETITGHYSCIYSKGITWSERSKTLELKVIKENVIQTPAPGPTSDTSWLKTYSIYQEGSLPDITIFPNSSLMISQGTFVTVVCSYSDKHDLYNMVALAKDGSTFMEKSTEPYKTEDEFEIGPVNETITGHYSCIYSKGITWSERSKTLELKVIKENVIQTPAPGPTSDTSWLKTYSIYEAHKSEIAHRYNDLGEQHFKGLVLIAFSQYLQKCSYDEHAKLVQEVTDFAKTCVADESAANCDKSLHTLFGDKLCAIPNLRENYGELADCCTKQEPERNECFLQHKDDNPSLPPFERPEAEAMCTSFKENPTTFMGHYLHEVARRHPYFYAPELLYYAEQYNEILTQCCAEADKESCLTPKLDGVKEKALVSSVRQRMKCSSMQKFGERAFKAWAVARLSQTFPNADFAEITKLATDLTKVNKECCHGDLLECADDRAELAKYMCENQATISSKLQTCCDKPLLKKAHCLSEVEHDTMPADLPAIAADFVEDQEVCKNYAEAKDVFLGTFLYEYSRRHPDYSVSLLLRLAKKYEATLEKCCAEANPPACYGTVLAEFQPLVEEPKNLVKTNCDLYEKLGEYGFQNAILVRYTQKAPQVSTPTLVEAARNLGRVGTKCCTLPEDQRLPCVEDYLSAILNRVCLLQEKTPVSEHVTKCCSGSLVERRPCFSALTVDETYVPKEFKAETFTFHSDICTLPEKEKQIKKQTALAELVKHKPKATAEQLKTVMDDFAQFLDTCCKAADKDTCFSTEGPNLVTRCKDALA

Kd [4]: 20 nM
B4: LAIR-LAIR-MSA^H464Q-his (other)
chain: QEGSLPDITIFPNSSLMISQGTFVTVVCSYSDKHDLYNMVRLEKDGSTFMEKSTEPYKTEDEFEIGPVNETITGHYSCIYSKGITWSERSKTLELKVIKENVIQTPAPGPTSDTSWLKTYSIYQEGSLPDITIFPNSSLMISQGTFVTVVCSYSDKHDLYNMVRLEKDGSTFMEKSTEPYKTEDEFEIGPVNETITGHYSCIYSKGITWSERSKTLELKVIKENVIQTPAPGPTSDTSWLKTYSIYEAHKSEIAHRYNDLGEQHFKGLVLIAFSQYLQKCSYDEHAKLVQEVTDFAKTCVADESAANCDKSLHTLFGDKLCAIPNLRENYGELADCCTKQEPERNECFLQHKDDNPSLPPFERPEAEAMCTSFKENPTTFMGHYLHEVARRHPYFYAPELLYYAEQYNEILTQCCAEADKESCLTPKLDGVKEKALVSSVRQRMKCSSMQKFGERAFKAWAVARLSQTFPNADFAEITKLATDLTKVNKECCHGDLLECADDRAELAKYMCENQATISSKLQTCCDKPLLKKAHCLSEVEHDTMPADLPAIAADFVEDQEVCKNYAEAKDVFLGTFLYEYSRRHPDYSVSLLLRLAKKYEATLEKCCAEANPPACYGTVLAEFQPLVEEPKNLVKTNCDLYEKLGEYGFQNAILVRYTQKAPQVSTPTLVEAARNLGRVGTKCCTLPEDQRLPCVEDYLSAILNRVCLLQEKTPVSEHVTKCCSGSLVERRPCFSALTVDETYVPKEFKAETFTFHSDICTLPEKEKQIKKQTALAELVKHKPKATAEQLKTVMDDFAQFLDTCCKAADKDTCFSTEGPNLVTRCKDALA

Kd [3]: > 1000 nM
B5: LAIRx-IL2-his (other)
chain: QEGSLPDITIFPNSSLMISQGTFVTVVCSYSDKHDLYNMVALAKDGSTFMEKSTEPYKTEDEFEIGPVNETITGHYSCIYSKGITWSERSKTLELKVIKENVIQTPAPGPTSDTSWLKTYSIYAPTSSSTSSSTAEAQQQQQQQQQQQQHLEQLLMDLQELLSRMENYRNLKLPRMLTFKFYLPKQATELKDLQCLEDELGPLRHVLDLTQSKSFQLEDAENFISNIRVTVVKLKGSDNTFECQFDDESATVVDFLRRWIAFCQSIISTSPQ
